This is an account of results in publication PMC9561270, “Phosphorylation of the auxin signaling transcriptional repressor IAA15 by MPKs is required for the suppression of root development under drought stress in Arabidopsis” (Nucleic Acids Research, 2022).

In experiment [1] the target is T1, His-MPK3 (Arabidopsis thaliana, UniProt Q39023 1-370).
T1 construct: also called His-fused MPK3; source: E. coli M15, purified (Ni-NTA agarose); not shown: His, N-terminal, kept
T1 sequence (looked up): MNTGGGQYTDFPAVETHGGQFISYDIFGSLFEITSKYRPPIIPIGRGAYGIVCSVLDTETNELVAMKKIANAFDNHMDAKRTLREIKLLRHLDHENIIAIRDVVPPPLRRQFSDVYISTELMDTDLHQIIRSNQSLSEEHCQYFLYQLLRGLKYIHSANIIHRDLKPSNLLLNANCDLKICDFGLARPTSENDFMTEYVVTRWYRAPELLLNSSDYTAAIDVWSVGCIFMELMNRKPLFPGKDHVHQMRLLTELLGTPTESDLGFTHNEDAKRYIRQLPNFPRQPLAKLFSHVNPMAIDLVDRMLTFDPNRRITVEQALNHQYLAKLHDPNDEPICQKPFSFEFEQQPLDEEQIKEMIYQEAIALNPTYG
As to the kind of experiment: pull-down; 2 ug GST or GST-IAA15 on glutathione-Sepharose 4B beads; 1 ug His-MPK added, overnight at 4 C; 50 mM Tris-HCl pH 7.5, 200 mM NaCl, 1% Triton X-100, 0.1 mM EDTA, 0.5 mM DTT; detected with anti-His antibodies. Conditions: both partners purified.

For experiment [2], the target named is T2, His-MPK6 (Arabidopsis thaliana, UniProt Q39026 1-395).
T2 construct: also called His-fused MPK6; source: E. coli M15, purified (Ni-NTA agarose); not shown: His, N-terminal, kept
The description is as above. To be noted: both partners purified.

T2 sequence (Q39026 whole entry, the tested form may be a part): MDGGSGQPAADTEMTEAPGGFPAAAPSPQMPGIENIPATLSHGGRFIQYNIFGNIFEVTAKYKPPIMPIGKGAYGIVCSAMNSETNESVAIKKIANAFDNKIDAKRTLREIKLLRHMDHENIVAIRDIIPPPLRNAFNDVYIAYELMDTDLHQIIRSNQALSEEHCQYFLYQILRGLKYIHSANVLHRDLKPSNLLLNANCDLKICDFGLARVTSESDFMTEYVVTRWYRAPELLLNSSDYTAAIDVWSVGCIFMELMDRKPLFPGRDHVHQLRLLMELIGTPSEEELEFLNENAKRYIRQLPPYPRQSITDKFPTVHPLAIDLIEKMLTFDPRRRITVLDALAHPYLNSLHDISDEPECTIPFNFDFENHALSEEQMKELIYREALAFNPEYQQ

B1: GST-IAA15 (natural protein, Arabidopsis thaliana, UniProt Q9C966 1-179, looked up)
chain: MSPEEYVRVWPDSGDLGGTELTLALPGTPTNASEGPKKFGNKRRFLETVDLKLGEAHENNYISSMVTNDQLVGWPPVATARKTVRRKYVKVALDGAAYLRKVDLGMYDCYGQLFTALENMFQGIITICRVTELERKGEFVATYEDKDGDLMLVGDVPWMMFVESCKRMRLMKTGDAIGL
notes: Auxin-responsive protein IAA15, Arabidopsis thaliana, At1g80390, full length, cloned into pGEX-4T-1; also called GST-fused IAA15; GST-IAA15^WT; source: E. coli BL21 (DE3), purified (glutathione Sepharose-4B); not shown: GST, N-terminal, kept
B1: the binding result in experiment [1] and in experiment [2] was “binds” throughout.
